From patent US9463217B1, “Methods and pharmaceutical compositions for treatment of retinal occlusion” (Institut National de la Sante et de la Recherche Medicale, priority 2012, dated 2016)

What was measured:
RBC adhesion in SCD = conditions: treatment by hydroxyurea, ref. [32]; cited from earlier work
[1] = tested on: adhesion of red blood cells (RBCs) from patients with central retinal vein occlusion to human microvascular endothelial cells (HMEC); experiment: RBC adhesion to HMEC under flow conditions (microslides, video-microscopy), inhibition by antibodies, peptide or annexin V; type: cell-based
Procedure: (§1) Blood samples were tested after storage at −196° C. as previously described. For the first 10 patients, RBC adhesion (on three occasions, n=30) was measured just after blood sampling and after storage. As the results were similar before and after storage (the interassay coefficient of variation was 13%±2%) all remaining patients were tested after storage.
Adhesion of RBCs to HMEC under flow conditions was determined according to a previously published technique. Briefly, HMEC were cultured in gelatin (2%) coated glass capillaries (microslides; Camlab Ltd, Cambridge, UK) for 24 h. Microslides containing confluent HMEC were mounted on the stage of a video-microscope. The RBC suspension (hematocrit 0.5%) was perfused through the microslide at a flow rate equivalent to a wall shear stress of 0.03 Pa for […], followed by washout of non-adherent cells for 10 min. The wall shear stress was then increased stepwise (from 0.03 to 0.3 Pa) every 5 min. At each step, adherent RBCs were video-recorded in 10 consecutive fields (one field measures 0.1 mm^2), then were counted using a computerized image analysis system (Optimas Media Cybernetics, Bethesda, Md., USA; R & D Vision, Paris, France) and expressed as number of RBCs per mm^2. Inhibition of RBC adhesion was measured in the presence of the antibodies used in static conditions or after RBC incubation with annexin V.

[2] = tested on: adhesion of red blood cells (RBCs) from patients with central retinal vein occlusion to human microvascular endothelial cells (HMEC-1); experiment: RBC adhesion to HMEC under static conditions (radiometric 51Cr technique), inhibition by antibodies, peptide or annexin V; type: cell-based
Procedure: as §1
RBC adhesion was measured under static conditions using a radiometric technique as previously described. Human microvascular endothelial cells (HMEC-1 Biological Branch Products; CDC, Atlanta, Ga., USA) were cultured in MCDB-131 (Invitrogen, Grand Island, N.Y., USA) supplemented with 15% fetal calf serum (D. Dutscher, Brumath, France), endothelial growth factor (10 ng mL^−1) and hydrocortisone (1 μg mL^−1)(Invitrogen). […] Radioactivity in the lysate was measured in a gamma counter, and adhesion was then calculated as RBCs per square millimeter. […] Inhibition of RBC adhesion was assessed using HMEC preincubated with specific antibodies directed against PS receptor (polyclonal anti-PS receptor antibody, Sigma, St Louis, Mo., USA; polyclonal anti-human stabilin-2 antibody, R&D systems, Minneapolis, Minn., USA) or against human CD36 (monoclonal anti-CD36/SR-B3; R&D systems) or antihuman Brain-specific angiogenesis inhibitor-1 (BAI-1; Santa Cruz Biotechnology, Santa Cruz, Calif., USA). […]

| Molecule | effect on RBC adhesion (in words) (RBC adhesion in SCD) | inhibition of CRVO RBC adhesion to HMEC ([1]; according to the shear stress) | inhibition of CRVO RBC adhesion to HMEC ([1]; shear stress 0.1 Pa) | inhibition of CRVO RBC adhesion to HMEC ([1]; shear stress 0.3 Pa) | inhibition of CRVO RBC adhesion to HMEC [2] [%] |
| --- | --- | --- | --- | --- | --- |
| NC(=O)NO [hydroxyurea] | reduced RBC adhesion | – | – | – | – |
| Annexin V: recombinant, purified annexin V (BD Biosciences); binds to PS (protein, UniProt P08758 2-320, looked up) Annexin A5: AQVLRGTVTDFPGFDERADAETLRKAMKGLGTDEESILTLLTSRSNAQRQEISAAFKTLFGRDLLDDLKSELTGKFEKLIVALMKPSRLYDAYELKHALKGAGTNEKVLTEIIASRTPEELRAIKQVYEEEYGSSLEDDVVGDTSGYYQRMLVVLLQANRDPDAGIDEAQVEQDAQALFQAGELKWGTDEEKFITIFGTRSVSHLRKVFDKYMTISGFQIEETIDRETSGNLEQLLLAVVKSIRSIPAYLAETLYYAMKGAGTDDHTLIRVMVSRSEIDLFNIRKEFRKNFATSLYSMIKGDTSGDYKKALLLLCGEDD | – | 68-74% | 75%±6% | 74%±8% | 35 |
